Conditions in all cases: both partners purified
Assay [1] addresses T1, recombinant human PCSK9 with 6x His tag (proprotein convertase subtilisin/kexin type-9) (human, UniProt Q8NBP7 31-692).
T1 construct: proprotein convertase subtilisin/kexin type-9 (PCSK9), human, recombinant; written here as one chain; also called rhPCSK9-His; PCSK9-His
Put plainly: BLI; BLItz system; PCSK9-His (hPCSK9, 500 nM, 120 s loading) immobilised on an anti-Penta-HIS sensor; association 120 s, dissociation 120 s; sensorgrams fit globally to a 1:1 binding model.

Assay [2] addresses T2, recombinant human Syk (spleen tyrosine kinase) (human, UniProt P43405 1-635).
T2 construct: spleen tyrosine kinase (Syk), human, recombinant; also called rhSyk; source: bought: Abcam (ab60886)
Put plainly: BLI; BLItz system; CAP1-mFc immobilised on an anti-mouse IgG Fc (AMC) sensor; Syk or PKCδ in the association step (120 s), dissociation 120 s; global 1:1 binding model. (In general: In BLI a coated tip is dipped into the sample, and binding shifts an interference pattern.)

In assay [3] the target is T3, recombinant human PKCδ (protein kinase C delta) (human, UniProt Q05655 1-676).
T3 construct: protein kinase C delta (PKCδ), human, recombinant; also called rhPKCδ; source: bought: Abcam (ab60844)
T3 sequence (Q05655 whole entry, stated change not applied): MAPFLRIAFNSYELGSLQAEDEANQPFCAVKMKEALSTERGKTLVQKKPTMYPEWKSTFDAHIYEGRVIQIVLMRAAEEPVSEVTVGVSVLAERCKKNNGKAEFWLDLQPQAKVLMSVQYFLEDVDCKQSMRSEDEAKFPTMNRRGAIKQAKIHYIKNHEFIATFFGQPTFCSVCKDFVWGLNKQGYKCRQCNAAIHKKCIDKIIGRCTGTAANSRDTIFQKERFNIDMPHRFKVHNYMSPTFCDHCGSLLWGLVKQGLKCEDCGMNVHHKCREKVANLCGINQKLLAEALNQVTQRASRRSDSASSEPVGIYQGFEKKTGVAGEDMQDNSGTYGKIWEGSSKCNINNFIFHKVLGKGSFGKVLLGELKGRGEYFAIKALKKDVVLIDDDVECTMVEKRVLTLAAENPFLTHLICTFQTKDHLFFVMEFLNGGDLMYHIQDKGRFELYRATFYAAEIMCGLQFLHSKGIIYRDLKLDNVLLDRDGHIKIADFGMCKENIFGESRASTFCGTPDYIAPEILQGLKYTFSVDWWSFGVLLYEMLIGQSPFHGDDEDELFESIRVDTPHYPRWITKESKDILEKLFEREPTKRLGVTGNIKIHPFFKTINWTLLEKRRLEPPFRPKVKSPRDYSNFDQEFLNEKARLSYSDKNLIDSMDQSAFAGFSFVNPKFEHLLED
The description is as above.

B1: recombinant human CAP1 (adenylyl cyclase-associated protein 1) (natural protein, UniProt Q01518 1-475, looked up)
chain: MADMQNLVERLERAVGRLEAVSHTSDMHRGYADSPSKAGAAPYVQAFDSLLAGPVAEYLKISKEIGGDVQKHAEMVHTGLKLERALLVTASQCQQPAENKLSDLLAPISEQIKEVITFREKNRGSKLFNHLSAVSESIQALGWVAMAPKPGPYVKEMNDAAMFYTNRVLKEYKDVDKKHVDWVKAYLSIWTELQAYIKEFHTTGLAWSKTGPVAKELSGLPSGPSAGSCPPPPPPCPPPPPVSTISCSYESASRSSLFAQINQGESITHALKHVSDDMKTHKNPALKAQSGPVRSGPKPFSAPKPQTSPSPKRATKKEPAVLELEGKKWRVENQENVSNLVIEDTELKQVAYIYKCVNTTLQIKGKINSITVDNCKKLGLVFDDVVGIVEIINSKDVKVQVMGKVPTISINKTDGCHAYLSKNSLDCEIVSAKSSEMNVLIPTEGGDFNEFPVPEQFKTLWNGQKLVTTVTEIAG
notes: adenylyl cyclase-associated protein 1 (CAP1), human, recombinant; also called rhCAP1; hCAP1; source: bought: Abnova (H00010487-P01)
As to B1, in assay [1], the Kd stood at 32 nM.

B2: human CAP1 whose carboxyl-terminal end was conjugated with the Fc region of mouse immunoglobulin (Fc fusion, UniProt Q01518 1-475, looked up)
chain: MADMQNLVERLERAVGRLEAVSHTSDMHRGYADSPSKAGAAPYVQAFDSLLAGPVAEYLKISKEIGGDVQKHAEMVHTGLKLERALLVTASQCQQPAENKLSDLLAPISEQIKEVITFREKNRGSKLFNHLSAVSESIQALGWVAMAPKPGPYVKEMNDAAMFYTNRVLKEYKDVDKKHVDWVKAYLSIWTELQAYIKEFHTTGLAWSKTGPVAKELSGLPSGPSAGSCPPPPPPCPPPPPVSTISCSYESASRSSLFAQINQGESITHALKHVSDDMKTHKNPALKAQSGPVRSGPKPFSAPKPQTSPSPKRATKKEPAVLELEGKKWRVENQENVSNLVIEDTELKQVAYIYKCVNTTLQIKGKINSITVDNCKKLGLVFDDVVGIVEIINSKDVKVQVMGKVPTISINKTDGCHAYLSKNSLDCEIVSAKSSEMNVLIPTEGGDFNEFPVPEQFKTLWNGQKLVTTVTEIAG
notes: adenylyl cyclase-associated protein 1 (CAP1), human; also called CAP1-mFc; hCAP1-mFc; source: Expi293F, transfected, purified to homogeneity; not shown: Fc (mouse immunoglobulin), C-terminal, kept
In the case of B2, the results for the Kd in assay [2] and in assay [3] were 5.96 nM and 322 nM, respectively.

Usually Kd stands for a measure of binding affinity in units of concentration.

The values above are taken from PMC10981688, “PCSK9 stimulates Syk, PKCδ, and NF-κB, leading to atherosclerosis progression independently of LDL receptor” (Nature Communications, 2024).
